Entries after “also recorded” stand apart in the source; their conditions may differ.
Columns and labels:
[1] = Free 67Cu in the formulation by radioTLC; assay type: physicochemical; settings: batch QC result; acceptance ≤5%
Text: The stability of the complex can also be measured by considering the amount of free copper, i.e. free copper radioisotope that is intended to be complexed with the sarcophagine ligand, present in the formulation. In certain embodiments, the amount of free copper radioisotope present in formulation is not more than about 5%. In other embodiments, the amount of free copper radioisotope present in the formulation is not more than about 4%. In other embodiments, the amount of free copper present in the formulation is not more than about 3%. In other embodiments, the amount of free copper present in the formulation is not more than about 2%. In other embodiments, the amount of free copper present in the formulation is not more than about 1%. In other embodiments, the amount of free ^67Cu present in the formulation is less than about 1%. In other embodiments, the amount of free ^67Cu present in the formulation is less than about 2%.
TLC was performed with a mobile phase of 10 mM NaEDTA in 50 mM phosphate buffer using a silica gel 60 F254 aluminium backed TLC plate with dimensions of 1 cm×10 cm.

[2] = Appearance / visible particles in injection (quality control); assay type: physicochemical; settings: batch QC result
[3] = pH by probe (quality control); assay type: physicochemical; settings: batch QC result; acceptance 4.0-8.0
[4] = Radiochemical purity / stability of the formulation by radioHPLC; assay type: physicochemical
Text: The stability of the formulation relates to the stability of the complex, where the radioisotope may undergo dissociation or the complex may undergo radiolysis. The stability of the complex can be measured by considering the radiochemical purity of the formulation. Radiochemical purity is defined as the amount of the radioisotope complexed by the sarcophagine ligand expressed as a percentage of the total amount of the radioisotope present in the formulation. The radioisotope may be present in the formulation as a complex with the sarcophagine ligand, as a free radioisotope or as part of a radiolysis product. […] In the embodiments, described herein, radiochemical purity may be determined by techniques such as radioHPLC, where the amount of the radioisotope in either its complexed or free form is determined and compared with the amount of the radioisotope introduced to the formulation. A person skilled in the art would understand the necessary conditions for separation, analysis and quantification of the formulation by radioHPLC. Nonetheless, in certain embodiments, the mobile phase used to analyse a formulation as disclosed herein by radioHPLC comprises about 0.1% trifluoroacetic acid (TFA) in water. […]
Product stability was monitored up to 96 hours post End of Synthesis (EOS) for 3 validation batches of [^67Cu]Formula(Ib) in an aqueous formulation prepared as outlined above. […]

[5] = cited from earlier work

SMILES	Free [67Cu]Cu2+ by TLC [1] [%]	Appearance/Visible particles in injection [2]	pH by probe [3]	Radiochemical purity by radio-HPLC ([4]; batch QC result, acceptance ≥90%) [%]	radiochemical purity (RPC) over the stability test ([4]; up to 96 hours post End of Synthesis, 3 validation batches) [%]	pKa (acid dissociation constant) [5]
CC(C)CC(NC(=O)CC(O)C(CC(C)C)NC(=O)C(Cc1c[nH]cn1)NC(=O)CNC(=O)C(NC(=O)C(C)NC(=O)C(Cc1c[nH]c2ccccc12)NC(=O)C(CCC(N)=O)NC(=O)C(Cc1ccccc1)NC(=O)CCOCCNC(=O)CCCC(=O)NC12CNCCNCC(C)(CNCCNC1)CNCCNC2)C(C)C)C(N)=O (stereo not drawn) [[^67Cu]Formula (Ib), metal not drawn]	0	Clear ✓; also recorded: Particle-free ✓	6.72	94.23	≥ 94.0	–
O=C(O)c1cc(O)ccc1O [gentisic acid, 2,5-dihydroxybenzoic acid]	–	–	–	–	–	about 2.5

— patent publication US20260069727A1, “FORMULATIONS FOR RADIOTHERAPY AND DIAGNOSTIC IMAGING AND USE THEREOF IN TREATMENT, DIAGNOSIS AND IMAGING DISEASES” (priority 2022, published 2026)
